B1: 22B22 (antibody, V domains shown)
VH: EVQLVESGGGLVKPGGSLKLSCAASGFTFSSYAMSWVRQSPEKRLEWVAEISSGGSYTYYPDTVTGRFTISRDNAKNTLYLEMSSLRSEDTAMYYCARKRRDYYAMDYWGQGTSVTVSS
VL: DVQITQSPSYLAASPGETITINCRASKSISKYLAWYQEKPGKTNKLLIYSGSTLQSGIPSRFSGSGSGTDFTLTISSLEPEDFAMYYCQQHNEYPWTFGGGTKLEIK
notes: Mouse monoclonal antibody purified from hybridoma on Protein G; also called mAb 22B22; mouse anti-TIGIT clone 22B22
B2: 28P24 (antibody, V domains shown)
VH: QVQLQQSGAELVRPGTSVKMSCKAAGYTFTNYFIGWVKQRPGHGLDWIGDIYPGGGYTNYNEKFKGKATLTADTSSSTAYMQLSSLTSEDSAIYYCVRFYGNYVFAYWGQGTLVTVSA
VL: DVQITQSPSCLAASPGETITINCRASKTISKYLAWYQEKPGKTNKLLIYSGSTLQSGIPSRFSGSGSGTDFTLTISSLEPEDFAMYYCQQHNEYPWTFGGGTKLEIK
notes: Mouse monoclonal antibody purified from hybridoma on Protein G; also called mAb 28P24; mouse anti-TIGIT clone 28P24
B3: 28O12 (antibody, V domains shown)
VH: EVQLVESGGGLVKPGGSLKLSCAASGFTFSNYAMSWVRQSPEKRLEWVAEISGGGSYTYHPDTVTGRFTISRDNAKNTLYLEMSSLRSEDTAMYYCARKRRDYYAMDYWGQGTSVTVSS
VL: DVQITQSPSYLAASPGETITINCRASKSISKYLAWYQEKPGKTNKLLIYSGSTLQSGIPSRFSGSGSGTDFTLTISSLEPEDFAMYYCQQHNEYPWTFGGGTKLEIK
notes: Mouse monoclonal antibody purified from hybridoma on Protein G; also called mAb 28O12; mouse anti-TIGIT clone 28O12
B4: 21B16 (antibody, V domains shown)
VH: EVQLVESGGGLVKPGGSLKLSCAASGFTFSTYAMSWVRQSPEKRLEWVAEISSGGTYTYFPDTVTGRFTISRDNAKNTLYLEMSSLRSEDTAMYYCARKRRDYYAMDYWGQGTSVTVSS
VL: DVQITQSPSYLAASPGETITINCRASKSISKYLAWYQEKPGKTNKLLIYSGSTLQSGIPSRFSGSGSGTDFTLTISSLEPEDFAVYYCQQHNEYPWTFGGGTKLEIK
notes: Mouse monoclonal antibody purified from hybridoma on Protein G; also called mAb 21B16; mouse anti-TIGIT clone 21B16
B5: 21B9 (antibody, V domains shown)
VH: EVQLVESGGGLVKPGGSLKLSCTASGFTFSSYAMSWVRQSPEKRLEWVAEISSGGSYTYYTDTVTGRFTISRDNAKNTLYLEMSSLRSEDTAMYYCARKRRDYYGMDYWGQGTSVTVSS
VL: DVQITQSPSYLAASPGETITINCRASKSISKYLAWYQEKPGKTNKLLIYSGSTLQTGIPSRFSGSGSGTDFTLTISSLEPEDFAMYYCQQHNEYPWTFGGGTKLEIK
notes: Mouse monoclonal antibody purified from hybridoma on Protein G; also called mAb 21B9; mouse anti-TIGIT clone 21B9
B6: Hu24F8.1 Fab (Fab, V domains shown)
VH: QVQLQESGPGLVKPSETLSLTCAVYGYSITSGYSWHWIRQPPGKGLEWIGYVHYSGSTNYNPSLKSRVTISVDTSKNQFSLKLSSVTAADTAVYYCARMDYGNYGGAMDYWGQGTLVTVSS
VL: EIVMTQSPATLSVSPGERATLSCKASQDVRTAVAWYQQKPGQAPRLLIYSASYRYTGIPARFSGSGSGTEFTLTISSLQSEDFAVYYCQQYYSTQWTFGGGTKVEIK
notes: Fab with human IgG1/kappa constant domains, secreted as a SASA fusion protein and tested as supernatant; also called VH1 + VL2
B7: Hu24F8.3 Fab (Fab, V domains shown)
VH: QVQLQESGPGLVKPSGTLSLTCAVSGYSITSGYSWHWVRQPPGKGLEWIGYVHYSGSTNYNPSLKSRVTISVDKSKNQFSLKLSSVTAADTAVYYCARMDYGNYGGAMDYWGQGTLVTVSS
VL: DIQMTQSPSSLSASVGDRVTITCKASQDVRTAVAWYQQKPGKAPKLLIYSASYRYTGVPSRFSGSGSGTDFTFTISSLQPEDIATYYCQQYYSTQWTFGGGTKLEIK
notes: Fab with human IgG1/kappa constant domains, secreted as a SASA fusion protein and tested as supernatant; also called VH2 + VL1
B8: Hu24F8.4 Fab (Fab, V domains shown)
VH: QVQLQESGPGLVKPSETLSLTCAVYGYSITSGYSWHWIRQPPGKGLEWIGYVHYSGSTNYNPSLKSRVTISVDTSKNQFSLKLSSVTAADTAVYYCARMDYGNYGGAMDYWGQGTLVTVSS
VL: DIQMTQSPSSLSASVGDRVTITCKASQDVRTAVAWYQQKPGKAPKLLIYSASYRYTGVPSRFSGSGSGTDFTFTISSLQPEDIATYYCQQYYSTQWTFGGGTKLEIK
notes: Fab with human IgG1/kappa constant domains, secreted as a SASA fusion protein and tested as supernatant; also called VH1 + VL1
B9: Hu24F8.2 Fab (Fab, V domains shown)
VH: QVQLQESGPGLVKPSGTLSLTCAVSGYSITSGYSWHWVRQPPGKGLEWIGYVHYSGSTNYNPSLKSRVTISVDKSKNQFSLKLSSVTAADTAVYYCARMDYGNYGGAMDYWGQGTLVTVSS
VL: EIVMTQSPATLSVSPGERATLSCKASQDVRTAVAWYQQKPGQAPRLLIYSASYRYTGIPARFSGSGSGTEFTLTISSLQSEDFAVYYCQQYYSTQWTFGGGTKVEIK
notes: Fab with human IgG1/kappa constant domains, secreted as a SASA fusion protein and tested as supernatant; Not the same preparation as Fab24F8 (papain fragment); also called VH2 + VL2
B10: chimera Fab mVH+mVL (mouse 24F8VH and 24F8VL with human IgG1/kappa Fab constant domains) (Fab, V domains shown)
VH: DVQLQESGPDLVKPSQSLSLTCTVTGYSITSGYSWHWIRQFPGNKLDWMGYVHYSGSTNYNPSLKSRISITRDTSKNQFFLQLNSVTTEDTATFYCARMDYGNYGGAMDYWGQGTSVTVSS
VL: EIVMTQSHKFMSTSVGDRVSITCKASQDVRTAVAWYQQKPGQSPKLLIYSASYRYTGVPDRFTGSGSGTDFTFTISSVQAEDLAVYYCQQYYSTQWTFGGGTKLEIK
notes: also called mouse/human chimera Fab
B11: 21F8 (antibody, V domains shown)
VH: DVQLQESGPGLVKPSQSLSLTCTVTGYSITSDYAWNWIRQFPGNKLEWMGYISYSGSTSYNPSLKSRISITRDTSKNQFFLQLNSVTTEDTATYYCARFMITTFAMDYWGQGTAVTVSS
VL: DIVMTQSHKFMSTSVGDRVSITCKASQHVSTAVAWYQQKPGQSPKLLIYSAPYRYTGVPDRFTGSGSGTDFTFTISSVQAEDLAVYYCQQHYNTLWTFGGGTKLEIK
notes: Mouse monoclonal antibody purified from hybridoma on Protein G; also called mAb 21F8; mouse anti-TIGIT clone 21F8
B12: 5J24 (antibody, V domains shown)
VH: QVQLQQSGAELVRPGTSVKMSCKAAGYTFTNHWIGWVKQRPGHGLEWIGDIYPGGGYTNYNEKFKGKATLTADTSSSTAYMYLSSLTSEDSAIYYCARSYGYDLYAMDYWGQGTSVTVSS
VL: DIQMTQSPSSLSASLGERVSLTCRASQEISGYLSWLQQKPDGTIKRLIYAASTLGSGVPKRFSGSRSGSDYSLTISSLESEDFADYYCLQYDSYPFTFGAGTKLELK
notes: Mouse monoclonal antibody purified from hybridoma on Protein G; also called mAb 5J24; mouse anti-TIGIT clone 5J24

Legend:
[1] = target: T1, human TIGIT, full length, on cells (human, UniProt Q495A1 22-244); test: flow cytometry on CHO-K1 cells expressing human TIGIT
T1 construct: also called hTIGIT; hTIGIT-CHO
T1 sequence: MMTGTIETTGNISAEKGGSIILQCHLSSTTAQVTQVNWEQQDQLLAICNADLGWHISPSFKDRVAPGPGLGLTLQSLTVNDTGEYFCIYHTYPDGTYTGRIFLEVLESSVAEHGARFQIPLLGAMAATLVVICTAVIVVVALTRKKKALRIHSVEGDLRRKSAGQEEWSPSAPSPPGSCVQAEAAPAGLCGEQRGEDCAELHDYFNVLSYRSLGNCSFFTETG
Description: (§1) These clones were further expanded, and antibodies were purified using a Protein G column. These purified antibodies were tested for binding to human and cyno TIGIT expressed on cell surface by flow cytometry. Stable CHO-K1 cell lines expressing full length human TIGIT clone 2A7 (Swiss-Prot Q495A1; SEQ ID NO: 80) or full length cyno TIGIT clone C10 (Swiss-Prot A0A2K5UW92; SEQ ID NO: 84) were developed. For the flow assay, cells were collected and incubated in 100 μL of HBSS buffer in the presence (or absence) of various concentrations of antibodies for 1 hr at 4° C. After washing with HBSS, antibody binding on cells was detected with 2 μg/mL of Alexa488-labeled goat anti-mouse IgG antibody (ThermoFisher Scientific, Cat #A-11001) for 30 min at 4° C. Cells were then washed and resuspended in PBS and subjected to flow cytometry using an Attune NxT flow cytometer (ThermoFisher Scientific, Waltham, Mass.). The geometric mean of the fluorescence intensity was obtained for the whole single cell population. Antibodies capable of binding to both human and cyno TIGIT expressed on cell surface were further tested for their blocking activity against recombinant human CD155 binding to human TIGIT on the surface of CHO cells. CHO-hTIGIT cells (10⁵ cells) were incubated with 2.5 μg/mL hCD155-Fc protein in the presence of various concentrations of antibody at room temperature for 1 hr. […] Cells were then washed and subjected to flow cytometry analysis.

[2] = target: T2, cynomolgus monkey TIGIT, full length, on cells (cynomolgus monkey); test: flow cytometry on CHO-K1 cells expressing cyno TIGIT
T2 construct: Whole entry of 312 amino acids; also called cyno TIGIT; cTIGIT
Description: as §1

[3] = target: T1, human TIGIT, full length, on cells; test: flow cytometry, inhibition of hCD155-Fc binding to CHO-hTIGIT cells
Description: as §1

hTIGIT-His = target: T3, hTIGIT-His (human); test: SPR, Biacore 8K, Fab-SASA supernatant captured on BSA chip, hTIGIT-His as analyte
T3 construct: also called His-tagged human TIGIT protein extracellular domain; soluble hTIGIT-His
T3 chain: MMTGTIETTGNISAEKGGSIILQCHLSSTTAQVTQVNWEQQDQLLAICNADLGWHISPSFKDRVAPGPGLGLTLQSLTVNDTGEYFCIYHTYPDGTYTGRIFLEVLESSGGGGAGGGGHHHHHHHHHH
Source text: (§2) Oligonucleotides were designed and synthesized as Fab fragments with human IgG1/kappa constant domains for the two VH and two VL grafted human acceptors and inserted into a vector system for high throughput screening of expression levels and biophysical properties, without the need for protein purification (Zhang & Hirama, Patent Application Publication US 2012/0178110). All four combinations of VH1 (SEQ ID NO: 76) or VH2 (SEQ ID NO: 78) with VL1 (SEQ ID NO: 79) or VL2 (SEQ ID NO: 77) (FIGS. 1J-1M) were screened along with a chimera Fab mVH+mVL constructed from the mouse 24F8VH (SEQ ID NO: 5) & 24F8VL (SEQ ID NO: 6) domains and human IgG1/kappa Fab constant domains. Supernatants of the Fabs, secreted as a SASA (single-domain antibody against serum albumin) fusion proteins were analyzed by surface plasmon resonance (SPR) using a Biacore 8K instrument with Fab capture using an BSA coated chip and soluble His-tagged TIGIT as the analyte. The kinetic binding data for human and cyno TIGIT are shown in Table 9 for the five Fab fragments.

cTIGIT-His = target: T4, cTIGIT-His (cynomolgus monkey); test: SPR, Biacore 8K, Fab-SASA supernatant captured on BSA chip, cTIGIT-His as analyte
T4 construct: also called His-tagged cyno TIGIT protein extracellular domain; soluble cTIGIT-His
T4 chain: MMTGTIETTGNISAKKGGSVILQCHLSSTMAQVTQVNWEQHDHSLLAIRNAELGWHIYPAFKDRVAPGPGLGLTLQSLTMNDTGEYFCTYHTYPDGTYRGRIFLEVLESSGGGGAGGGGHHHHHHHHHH
Source text: as §2

Row | Binder | EC50 [1] | EC50 [2] | IC50 [3] | Kd (hTIGIT-His) | koff (hTIGIT-His) | kon (hTIGIT-His) | Kd (cTIGIT-His) | koff (cTIGIT-His) | kon (cTIGIT-His)
1 | B1 | 507 pM | 580 pM | 830 pM |  |  |  |  |  | 
2 | B2 | 466 pM | 1260 pM | 1700 pM |  |  |  |  |  | 
3 | B3 | 638 pM | 710 pM | 1160 pM |  |  |  |  |  | 
4 | B4 | 498 pM | 1200 pM | 1150 pM |  |  |  |  |  | 
5 | B5 | 506 pM | 631 pM | 1660 pM |  |  |  |  |  | 
6 | B6 |  |  |  | 36.1 pM | 0.000111 s⁻¹ | 3.08e+06 M⁻¹ s⁻¹ | 1260 pM | 0.0014 s⁻¹ | 1.11e+06 M⁻¹ s⁻¹
7 | B7 |  |  |  | 242 pM | 0.000481 s⁻¹ | 1.99e+06 M⁻¹ s⁻¹ | 6000 pM | 0.00585 s⁻¹ | 974000 M⁻¹ s⁻¹
8 | B8 |  |  |  | 280 pM | 0.000855 s⁻¹ | 3.05e+06 M⁻¹ s⁻¹ | 9810 pM | 0.0133 s⁻¹ | 1.35e+06 M⁻¹ s⁻¹
9 | B9 |  |  |  | 45 pM | 9.39e-05 s⁻¹ | 2.08e+06 M⁻¹ s⁻¹ | 1090 pM | 0.000808 s⁻¹ | 742000 M⁻¹ s⁻¹
10 | B10 |  |  |  | 1.27 pM | 2.37e-06 s⁻¹ | 1.86e+06 M⁻¹ s⁻¹ | 474 pM | 0.000728 s⁻¹ | 1.54e+06 M⁻¹ s⁻¹
11 | B11 | 952 pM | 1790 pM | 1670 pM |  |  |  |  |  | 
12 | B12 | 704 pM | 1630 pM | 1460 pM |  |  |  |  |  | 

From US20220064294A1 (ARCUS BIOSCIENCES, published 2022)
